Results from US9845340B2, “Peptides that specifically bind HGF receptor (cMet) and uses thereof” (Dyax Corp., priority 2003, dated 2017).

How the values were obtained:
[1] = target: cMet-Fc fusion protein (Homo sapiens, UniProt P08581); experiment: Protein phage ELISA: peptide-displaying phage binding to soluble cMet-Fc versus TRAIL-Fc; details: phage isolate; cMet-Fc vs. TRAIL-Fc
Method: Protein phage ELISAs using peptide-displaying phage isolates from the various selection campaigns were performed to determine specificity of the peptides for cMet versus an unrelated Fc-fusion protein (TRAIL-Fc). Briefly, 384-well plates were coated overnight at 4 C with 0.5 μg/mL of cMet-Fc fusion protein or TRAIL-Fc fusion protein (background). The plates were blocked for 2 hours 37C with 3% (w/v) BSA in PBS containing 0.05% (v/v) Tween-20 (PBST). The plates were washed with PBST and 100 μL of peptide-displaying phage were added to each well. The plates were incubated for 2 hours at room temperature and washed with PBST. cMet-binding peptide-displaying phage were detected using an HRP-conjugated anti-M13 antibody.

[2] = target: T1, 3T3 cells that over-express human cMet (Homo sapiens, UniProt P08581); experiment: Whole cell ELISA of peptide-displaying phage; type: cell-based; details: phage isolate; 3T3 cells expressing human cMet vs. non-expressing 3T3 cells
T1 construct: expressed in transfected cells; host or cells: 3T3 cells
T1 sequence (P08581 25-1390): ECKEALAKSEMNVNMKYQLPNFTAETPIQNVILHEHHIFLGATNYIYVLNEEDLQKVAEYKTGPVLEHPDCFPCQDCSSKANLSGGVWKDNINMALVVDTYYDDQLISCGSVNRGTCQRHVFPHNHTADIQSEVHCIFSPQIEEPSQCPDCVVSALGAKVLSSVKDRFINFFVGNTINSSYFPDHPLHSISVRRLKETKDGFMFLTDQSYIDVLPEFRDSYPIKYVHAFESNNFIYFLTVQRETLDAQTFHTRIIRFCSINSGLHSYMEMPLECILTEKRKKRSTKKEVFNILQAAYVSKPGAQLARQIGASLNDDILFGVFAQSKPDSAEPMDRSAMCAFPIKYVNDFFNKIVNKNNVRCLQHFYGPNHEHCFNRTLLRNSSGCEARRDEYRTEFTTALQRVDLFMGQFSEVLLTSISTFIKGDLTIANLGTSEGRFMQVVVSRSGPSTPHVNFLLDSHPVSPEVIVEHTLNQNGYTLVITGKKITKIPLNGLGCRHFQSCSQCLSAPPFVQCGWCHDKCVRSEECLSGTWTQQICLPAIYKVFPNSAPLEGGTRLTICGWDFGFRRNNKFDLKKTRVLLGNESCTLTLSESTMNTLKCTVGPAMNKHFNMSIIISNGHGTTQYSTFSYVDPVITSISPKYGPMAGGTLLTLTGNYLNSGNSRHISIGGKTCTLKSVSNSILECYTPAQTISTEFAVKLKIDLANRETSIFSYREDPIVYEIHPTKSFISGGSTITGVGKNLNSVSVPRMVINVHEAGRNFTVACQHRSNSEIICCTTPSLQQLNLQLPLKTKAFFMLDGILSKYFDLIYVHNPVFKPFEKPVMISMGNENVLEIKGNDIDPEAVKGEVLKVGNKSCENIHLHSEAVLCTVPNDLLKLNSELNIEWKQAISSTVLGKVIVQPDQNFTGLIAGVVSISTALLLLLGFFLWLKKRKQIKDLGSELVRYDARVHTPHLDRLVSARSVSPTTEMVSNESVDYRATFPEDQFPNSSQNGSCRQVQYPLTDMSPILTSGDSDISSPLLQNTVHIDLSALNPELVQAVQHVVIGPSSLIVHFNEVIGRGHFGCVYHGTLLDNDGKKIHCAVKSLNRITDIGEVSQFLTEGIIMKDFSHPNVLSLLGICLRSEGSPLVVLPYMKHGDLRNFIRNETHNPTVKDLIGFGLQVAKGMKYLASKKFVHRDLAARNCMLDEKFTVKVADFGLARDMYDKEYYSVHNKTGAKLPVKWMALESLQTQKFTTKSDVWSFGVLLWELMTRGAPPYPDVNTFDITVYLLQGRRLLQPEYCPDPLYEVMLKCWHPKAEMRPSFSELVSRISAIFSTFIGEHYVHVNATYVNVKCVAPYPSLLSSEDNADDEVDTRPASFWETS
Method: Whole cell ELISAs were performed using 3T3 cells that over-express human cMet. […] Briefly, 96-well plates were seeded with 10^5 cells per well. The plates were centrifuged for 5 minutes at 1600 rpm to pellet the cells. The resulting cell layer was fixed with 0.1% (v/v) glutaraldehyde for 12 minutes at 37 C. […] Peptide-displaying phage also were blocked in the above solution for 1 hour at 37 C. 100 μL of blocked phage was then added to each well and the plates were incubated for 1 hour at room temperature. The plates were washed with PBST. cMet-binding peptide-displaying phage were detected using an HRP-conjugated anti-M13 antibody.

Chain of cMet-Fc fusion protein (P08581 25-307 limits assumed): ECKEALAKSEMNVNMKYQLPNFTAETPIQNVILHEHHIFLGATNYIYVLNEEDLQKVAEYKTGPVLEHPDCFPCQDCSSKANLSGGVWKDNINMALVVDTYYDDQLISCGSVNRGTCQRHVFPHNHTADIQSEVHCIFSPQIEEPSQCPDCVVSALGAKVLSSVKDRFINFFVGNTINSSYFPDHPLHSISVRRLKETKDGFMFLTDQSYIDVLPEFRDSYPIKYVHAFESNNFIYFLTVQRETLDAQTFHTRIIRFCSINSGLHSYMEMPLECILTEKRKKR
Chain of cMet-Fc fusion protein (P08581 with tags, fused parts or gaps limits assumed): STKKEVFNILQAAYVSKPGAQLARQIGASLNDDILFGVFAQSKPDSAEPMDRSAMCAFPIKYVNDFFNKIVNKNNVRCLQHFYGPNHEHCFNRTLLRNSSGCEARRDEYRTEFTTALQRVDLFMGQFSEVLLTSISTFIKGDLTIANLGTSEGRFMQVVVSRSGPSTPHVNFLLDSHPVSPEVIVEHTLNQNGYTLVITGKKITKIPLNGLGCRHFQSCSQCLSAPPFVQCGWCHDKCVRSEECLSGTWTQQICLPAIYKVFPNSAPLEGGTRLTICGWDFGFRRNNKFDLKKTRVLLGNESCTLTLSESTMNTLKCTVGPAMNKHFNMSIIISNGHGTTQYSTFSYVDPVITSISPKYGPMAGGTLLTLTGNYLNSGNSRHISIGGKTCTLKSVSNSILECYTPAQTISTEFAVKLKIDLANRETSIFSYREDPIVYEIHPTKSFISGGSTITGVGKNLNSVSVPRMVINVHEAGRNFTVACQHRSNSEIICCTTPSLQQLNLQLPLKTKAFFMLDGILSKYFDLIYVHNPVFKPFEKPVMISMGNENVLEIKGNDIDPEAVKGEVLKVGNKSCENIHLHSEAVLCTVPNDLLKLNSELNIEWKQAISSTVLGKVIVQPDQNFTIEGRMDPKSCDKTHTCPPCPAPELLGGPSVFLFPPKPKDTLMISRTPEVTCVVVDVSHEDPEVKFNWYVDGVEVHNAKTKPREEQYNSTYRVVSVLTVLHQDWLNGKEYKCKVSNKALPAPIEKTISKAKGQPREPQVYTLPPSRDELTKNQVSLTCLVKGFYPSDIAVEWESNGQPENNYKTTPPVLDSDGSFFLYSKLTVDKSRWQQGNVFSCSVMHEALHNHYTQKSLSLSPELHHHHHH

Compound | Protein ELISA [1] [fold over background] | WC ELISA [2] [fold over background]
AGYPECKDNYHWCEWKGT (Synthetically generated cMet-binding peptide sequence) [SEQ ID NO: 024] | 14.5 | 1.30
CC[C@H](C)[C@H](NC(=O)[C@H](CO)NC(=O)CNC(=O)[C@H](C)NC(C)=O)C(=O)N[C@@H](CCC(N)=O)C(=O)N[C@H]1CSSC[C@@H](C(=O)N[C@H](C(=O)N2CCC[C@H]2C(=O)N[C@@H](Cc2ccc(O)cc2)C(=O)NCC(=O)N[C@H](C(=O)NCC(=O)NCC(=O)NCC(=O)N[C@@H](CCCCNC(=O)c2ccc3c(c2)C(=O)OC32c3ccc(O)cc3Oc3cc(O)ccc32)C(N)=O)[C@@H](C)O)[C@@H](C)O)NC(=O)[C@H](CCC(=O)O)NC(=O)[C@H](Cc2ccccc2)NC(=O)[C@H](CO)NC(=O)[C@@H]2CCCN2C(=O)[C@@H]2CCCN2C(=O)CNC(=O)[C@H](C(C)C)NC1=O [SEQ ID NO: 074] | 6.7 | 1.37
AGPYSCHSESHDCKLMGT (Synthetically generated cMet-binding peptide sequence) [SEQ ID NO: 032] | 3.2 | 1.27
AQRDYLFYWNDGSYQPWQVFVG (Synthetically generated cMet-binding peptide sequence) [SEQ ID NO: 493] | 5.5 | 1.30
AGDHYCWEEWWFCWDSGT (Synthetically generated cMet-binding peptide sequence) [SEQ ID NO: 021] | 3.5 | 1.37
AGDWHCQGPPAFMCWMIGT (Synthetically generated cMet-binding peptide sequence) [SEQ ID NO: 065] | 4.7 | 1.30
AGWGWCSGPPMFMCTEYGT (Synthetically generated cMet-binding peptide sequence) [SEQ ID NO: 099] | 4.0 | 1.30
CC(=O)N[C@@H](C)C(=O)N[C@@H](CCC(N)=O)C(=O)N[C@@H](CCC(N)=O)C(=O)N[C@@H](C)C(=O)N[C@@H](CO)C(=O)N[C@@H](CCCNC(=N)N)C(=O)N[C@@H](Cc1ccccc1)C(=O)N[C@H](C(=O)N[C@@H](Cc1ccccc1)C(=O)N[C@H](C(=O)N[C@@H](CC(=O)O)C(=O)NCC(=O)N[C@@H](CC(=O)O)C(=O)N[C@@H](CO)C(=O)N[C@@H](Cc1ccc(O)cc1)C(=O)N[C@@H](Cc1c[nH]c2ccccc12)C(=O)N[C@@H](Cc1c[nH]c2ccccc12)C(=O)N[C@@H](Cc1ccccc1)C(=O)N[C@@H](CCC(=O)O)C(=O)N[C@@H](CC(=O)O)C(=O)N[C@@H](Cc1ccccc1)C(=O)NCC(=O)NCC(=O)NCC(=O)N[C@@H](CCCCNC(=O)c1ccc2c(c1)C(=O)OC21c2ccc(O)cc2Oc2cc(O)ccc21)C(N)=O)[C@@H](C)O)[C@@H](C)O [SEQ ID NO: 449] | 7.0 | 1.17
GSTMSCWRWGRDAYSCNQMAP (Synthetically generated cMet-binding peptide sequence) [SEQ ID NO: 372] | 4.6 | 1.37
AGYWSCAGPPMFMCTWQGT (Synthetically generated cMet-binding peptide sequence) [SEQ ID NO: 079] | 10.7 | 1.27
GDHLTCEFRDDGWKEHCWWSDP (Synthetically generated cMet-binding peptide sequence) [SEQ ID NO: 403] | 11.1 | 1.23
AGYWDCKGPPHFFCEWHGT (Synthetically generated cMet-binding peptide sequence) [SEQ ID NO: 080] | 7.4 | 1.23
AGSSPCKGWPTFECYFYGT (Synthetically generated cMet-binding peptide sequence) [SEQ ID NO: 087] | 4.8 | 1.30
GSMNMCDTTDEISPTCHPSAP (Synthetically generated cMet-binding peptide sequence) [SEQ ID NO: 378] | 3.6 | 1.40
AQEWQTWTWNMIEVISENKTP (Synthetically generated cMet-binding peptide sequence) [SEQ ID NO: 468] | 3.8 | 1.40
GSELFCFYHHQGYEGCDVLAP (Synthetically generated cMet-binding peptide sequence) [SEQ ID NO: 385] | 4.8 | 1.27
AGYFHCSGSPWFQCDYYGT (Synthetically generated cMet-binding peptide sequence) [SEQ ID NO: 081] | 9.1 | 1.40
AQNAVVPPPMLWSIYWDYGREG (Synthetically generated cMet-binding peptide sequence) [SEQ ID NO: 457] | 7.0 | 1.37
AGAWNCEYPTFICEWQGA (Synthetically generated cMet-binding peptide sequence) [SEQ ID NO: 012] | 4.5 | 1.27
GSMLGCLFEHQNKYDCYVLAP (Synthetically generated cMet-binding peptide sequence) [SEQ ID NO: 379] | 3.2 | 1.43
AGTMYCLGPPTFICQQYGT (Synthetically generated cMet-binding peptide sequence) [SEQ ID NO: 084] | 13.0 | 1.23
AGYSVCKGYPSFECAFFGT (Synthetically generated cMet-binding peptide sequence) [SEQ ID NO: 075] | 5.8 | 1.33
GDYYQCQFSKDMYSERCWPYDP (Synthetically generated cMet-binding peptide sequence) [SEQ ID NO: 397] | 7.0 | 1.30
